In US20230338424A1 (LENTIGEN TECHNOLOGY, published 2023):

T1: recombinant human CD123 (human, UniProt P26951 19-305, limits assumed)
T1 construct: also called coated CD123
T1 sequence (looked up): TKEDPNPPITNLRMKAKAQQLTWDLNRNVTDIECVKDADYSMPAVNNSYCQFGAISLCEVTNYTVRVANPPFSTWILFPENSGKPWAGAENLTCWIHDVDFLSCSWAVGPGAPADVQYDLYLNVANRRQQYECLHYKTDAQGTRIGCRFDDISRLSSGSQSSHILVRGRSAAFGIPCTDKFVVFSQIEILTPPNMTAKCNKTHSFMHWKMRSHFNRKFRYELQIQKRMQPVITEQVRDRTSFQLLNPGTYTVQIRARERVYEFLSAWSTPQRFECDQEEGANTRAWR

T2: recombinant human CD123-Fc (human, UniProt P26951 19-305, limits assumed)
T2 construct: Treated as one molecule; also called CD123-Fc peptide (Novoprotein); recombinant IL3R-alpha Fc-tagged; not shown: Fc tag
T2 sequence (looked up): T1 sequence (looked up)

B1: scFv MB31-A01 (scFv)
scFv: QIQLVQSGAEVKKPGSSVKVSCKASGGTFSSYAISWVRQAPGQGLEWMGGIIPIFGTANYAQKFQGRVTITADESTSTAYMELSSLRSEDTAVYYCARGSGELLYASYYYYYMDVWGKGTTVTVSSGGGGSGGGGSGGGGSQSALTQPASVSGSPGQSITISCTGTSSDVGGYNYVSWYQQHPGKAPELMIYDVSNRPSGVSNRFSGSKSGNTASLTISGLQAEDEADYYCSSYTSSSTPVVFGGGTKLTVL
notes: Soluble scFv carried c-myc and His tags (detection antibodies); also called CD123 (MB31-A01)
B2: scFv MB42-E02 (scFv)
scFv: QVQLVQSGAEVKKPGASVKVSCKASGYTFTSYGISWVRQAPGQGLEWMGWISAYNGNTNYAQKLQGRVTMTTDTSTSTAYMELRSLRSDDTAVYYCARGAYYDFWSGYSWFDPWGQGTLVTVSSGGGGSGGGGSGGGGSQSVLTQPPSVSVAPGQTARIPCGGNNIGSKGVHWYQQKSGQAPVMVVYDDSDRPSGIPERFSGSNSGNTATLTISRVEAGDEADYYCQVWDSSGDLVLFGGGTKLTVL
notes: Soluble scFv carried c-myc and His tags; also called CD123 (MB42-E02)
B3: scFv MB42-E12 (scFv)
scFv: QVQLVQSGAEVKKPGASVKVSCKASGYTFTSYGISWVRQAPGQGLEWMGWISAYNGNTNYAQKLQGRVTMTTDTSTSTAYMELRSLRSDDTAVYYCARGAYYDFWSSYSWFDPWGQGTLVTVSSGGGGSGGGGSGGGGSSYVLTQPPSVSVAPGKTARITCGGNNIGSKSVHWYQQKPGQAPVLVVYDDSDRPSGIPERFSGSNSGNTATLTISRVEAGDEADYYCQVWDSSSDHVVFGGGTKLTVL
notes: Soluble scFv carried c-myc and His tags; also called CD123 (MB42-E12)
B4: scFv MB42-D03 (scFv)
scFv: QVQLVQSGAEVKKPGASVKVSCKASGYTFTSYGISWVRQAPGQGLEWMGWISAYNGNTNYAQKLQGRVTMTTDTSTSTAYMELRSLRSDDTAVYYCARGAYYDFWSSYSWFDPWGQGTLVTVSSGGGGSGGGGSGGGGSSYVLTQPPSVSVAPGKTARITCGGNSIGSKSVQWYQQKPGQAPVLVIYDDSDRPSGIPERFSGSNSGNTATLTISRVEAGDEADYYCQVWDSSSDVVFGGGTKLTVL
notes: Soluble scFv carried c-myc and His tags; also called CD123 (MB42-D03)
B5: scFv MB40-H08 (scFv)
scFv: QVQLVQSGAEVKKPGSSVKVSCKASGGTFSSYAISWVRQAPGQGLEWMGGIIPIFGTANYAQKFQGRVTITADESTSTAYMELSSLRSEDTAVYYCARNEWYSYYYYYMGVWGKGTTVTVSSGGGGSGGGGSGGGGSQSALTQPASVSGSPGQSITISCTGTSSDVGGYNYVSWYQQHPGKAPKLMIYEVSNRPSGVSNRFSGSKSGNTASLTISGLQAEDEADYYCSSYTSSSTLVVFGGGTKLTVL
notes: Soluble scFv carried c-myc and His tags; also called CD123 (MB40-H08)
B6: scFv MB44-H01 (scFv)
scFv: QVQLVQSGAEVKKPGSSVKVSCKASGGTFSSYAISWVRQAPGQGLEWMGGIIPIFGTANYAQRFQGRVTITADESTSTAYMELSSLRSEDTAVYYCARGLGTSYYYYYMDVWGKGTTVTVSSGGGGSGGGGSGGGGSQSVLTQPPSASGSPGQSVTISCTGTSSDVGGYNYVSWYQQHPGKAPKLMIYEVSNRPSGVSNRFSGSKSGNTASLTISGLQAEDEADYYCSSYTSSSTPVVFGGGTKLTVL
notes: Soluble scFv carried c-myc and His tags; also called CD123 (MB44-H01)
B7: scFv MB36-A05 (scFv)
scFv: QVQLVQSGAEVKKPGSSVKVSCKASGGTFSSYAISWVRQAPGQGLEWMGGIIPIFGTANYAQKFQGRVTITADKSTSTAYMELSSLRSEDTAVYYCARGGRNSYYYYYMDVWGKGTTVTVSSGGGGSGGGGSGGGGSQSALTQPASVSGSPGQSITISCTGTSSDVGGYNYVSWYQQHPGKAPKLMIYEVSNRPSGVSNRFSGSKSGNTASLTISGLQAEDEADYYCSSYTSSSPVVFGGGTKLTVL
notes: Soluble scFv carried c-myc and His tags; also called CD123 (MB36-A05)
B8: scFv MB35-E02 (scFv)
scFv: QVQLVQSGAEVKKPGSSVKVSCKASGGTFSSYAISWVRQAPGQGLEWMGGIIPIFGTANYAQKFQGRVTITADESTSTAYMELSSLRSEDTAVYYCARHGGMATMLPYGAFDIWGQGTMVTVSSGGGGSGGGGSGGGGSDIRLTQSPSSLSASVGDRVTITCRASQGISSYLNWYQQKPGKAPKLLIYAASRLQSGVPSRFSGSGSGTDFTLTISSLQPEDFATYYCQQSYSTSLTFGGGTKVEIK
notes: Soluble scFv carried c-myc and His tags; also called CD123 (MB35-E02)
B9: scFv MB40-F08 (scFv)
scFv: QVQLVQSGAEVKKPGSSVKVSCKASGGTFSSYAISWVRQAPGQGLEWMGGIIPIFGTANYAQKFQGRVTITADESTSTAYMELSSLRSEDTAVYYCARGSGELLYASYYYYYMDVWGKGTTVTVSSGGGGSGGGGSGGGGSQSALTQPASVSGSPGQSITISCTGTSSDVGGYNYVSWYQQHPGKAPKLMIYEVSNRPSGVSNRFSGSKSGNTASLTISGLQAEDEADYYCSSYTSSSPLVFGTGTKVTVL
notes: Soluble scFv carried c-myc and His tags; also called CD123 (MB40-F08)
B10: CAR D0127 CD123 MB35-E02 CD8 BBz (other)
chain: QVQLVQSGAEVKKPGSSVKVSCKASGGTFSSYAISWVRQAPGQGLEWMGGIIPIFGTANYAQKFQGRVTITADESTSTAYMELSSLRSEDTAVYYCARHGGMATMLPYGAFDIWGQGTMVTVSSGGGGSGGGGSGGGGSDIRLTQSPSSLSASVGDRVTITCRASQGISSYLNWYQQKPGKAPKLLIYAASRLQSGVPSRFSGSGSGTDFTLTISSLQPEDFATYYCQQSYSTSLTFGGGTKVEIKAAATTTPAPRPPTPAPTIASQPLSLRPEACRPAAGGAVHTRGLDFACDIYIWAPLAGTCGVLLLSLVITLYCKRGRKKLLYIFKQPFMRPVQTTQEEDGCSCRFPEEEEGGCELRVKFSRSADAPAYQQGQNQLYNELNLGRREEYDVLDKRRGRDPEMGGKPRRKNPQEGLYNELQKDKMAEAYSEIGMKGERRRGKGHDGLYQGLSTATKDTYDALHMQALPPR
notes: Chimeric antigen receptor on transduced human primary T cells; also called EF-1a-CD123 MB35-E02 CD8 BBz

Target: T1, recombinant human CD123
Experiment: ELISA, soluble scFv on coated recombinant human CD123
Experimental: After each round of incubation, the wells were washed 10 times for the first round, 20 times for the second round and 30 times for the third round with phosphate-buffered saline containing 0.05% Tween 20 (PBST) to remove nonspecifically bound phage. Antigen binding phage were eluted with 100 µl 10 µg/ml Trypsin diluted in PBS and mixed with TG1 competent cells for 1 hour at 37° C., and the phage was amplified from the infected cells and used in the next round of biopanning. After the third round of biopanning, 376 clones were randomly picked from the infected TG1 cells and each inoculated into 150 µl 2YT medium containing 100 µg/ml ampicillin and 200 mM glucose in 96-well plates by using the automated colony picking system (Molecular Devices, QPix 460) and were incubated at 37° C. overnight in a shaker at 300 rpm. Next day 10 µl of the bacterial cultures were used to inoculate 150 µl 2YT medium containing 100 µg/ml ampicillin and 50 µM isopropyl-β-d-thiogalactopyranoside in 96-well plates and the plates were further incubated at 30° C. overnight in a shaker at 300 rpm. […] The supernatants were incubated for 1 h at room temperature with recombinant human CD123 coated at 30 ng per well in 384-well plates and washed three times with PBST, (after overnight incubation at 4° C. it was blocked with 2% BSA in PBS containing 0.05% Tween 20 and washed three times with PBS containing 0.05% Tween 20.) After incubation the 3,3,′5,5′-tetramethylbenzidine (TMB) substrate was added, and solution absorbance at 450 nm (A450) measured. Clones that bound to CD123 with a signal to noise ratio of >5 were selected for further characterization.

binding result	Binder
binds	B1
binds	B2
binds	B3
binds	B4
binds	B5
binds	B6
binds	B7
binds	B8
binds	B9

Target: T3, CD123 on cells (MOLM-13, MOLM14, KG-1a, RS4;11-CD123) (human, UniProt P26951 19-378)
T3 construct: whole, on cells; also called CD123 antigen; CD123/IL-3 receptor alpha
T3 sequence (P26951 19-378): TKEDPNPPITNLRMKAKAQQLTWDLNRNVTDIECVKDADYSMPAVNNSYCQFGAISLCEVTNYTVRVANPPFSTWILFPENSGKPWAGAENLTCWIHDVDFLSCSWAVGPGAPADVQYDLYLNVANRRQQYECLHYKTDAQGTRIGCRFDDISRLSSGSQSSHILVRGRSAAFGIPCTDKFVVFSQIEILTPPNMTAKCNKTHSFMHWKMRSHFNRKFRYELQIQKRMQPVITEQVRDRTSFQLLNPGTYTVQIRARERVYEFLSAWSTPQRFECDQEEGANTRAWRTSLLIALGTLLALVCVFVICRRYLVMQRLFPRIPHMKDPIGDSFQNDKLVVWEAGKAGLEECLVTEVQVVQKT
Experiment: flow cytometry, soluble scFv on CD123-positive MOLM-13 cells, anti-His-APC
Experimental: Identified binders from ELISA were tested on CD123-positive the cell line MOLM-13. The CD123-negative cell line Jeko-1 CD20KO eGFP served as negative control. For positive control staining REAL270 (alpha CD123) and REAL116 (alpha CD123) antibodies were used, respectively. Soluble scFvs were expressed as described above. The bacterial pellets were disrupted by incubation with 0.3 mL TE buffer (10 mM Tris-HCl containing 1 mM EDTA, pH 8.0 at 37° C.)/well at 37° C., 250 rpm for 18 hours. Cultures were centrifuged at 4000xg, RT for 20 minutes and the supernatant was transferred to a fresh microtiter plate.
For cell staining cell number and viability were determined at MACSQuantX. A cell suspension containing needed cell number were centrifuged at 300xg, 4° C. for 10 minutes and supernatant was discarded. Cells are resuspended by addition of PEB buffer (1xPBS + 2 mM EDTA, 0.5% BSA pH 7.4 at RT) to a concentration of 1E+06 cells/mL. One hundred thousand cells per cell line were added to each well of 96-well V-bottom plate and the plate were centrifuged at 1300xg, 4° C. for 2 minutes. The supernatant was discarded, cells were resuspended in 100 µL of supernatant from periplasmatic preparation and cells were incubated for 10 minutes on ice. Cells were washed by addition of 100 µL PEB followed by centrifugation (1300 x g, 4° C. for 2 minutes), twice. Fifty microliter of secondary (Anti-His-APC conjugated antibody) or REAL antibody (diluted 1:50 in PEB buffer) per well were added and the plate is incubated for 10 minutes in the dark at 4° C. Cells were washed by addition of 100 µL PEB followed by centrifugation (1300xg, 4° C. for 2 minutes), twice. Propidium iodide was diluted 1:100 in Fixing solution (1xPBS + 2 mM EDTA + 1% PFA + 0.3% MeOH + 3% NaAzide) and washed cells were resuspended in 50 µL of the mixture. Signals are measured at MACSQuantX. Signals were analyzed using FlowLogic software. Statistical analysis was performed with VORTEX software.

binding result	Binder
binds	B1
binds	B2
binds	B3
binds	B4
binds	B5
binds	B6
binds	B7
binds	B8
binds	B9

Target: T2, recombinant human CD123-Fc
Experiment: flow cytometry, CAR T cells stained with recombinant IL3R-alpha Fc-tagged, anti-Fc AF647
Experimental: Half million CAR T cells were washed two times in cold AutoMACS buffer supplemented with 0.5% bovine serum albumin (Miltenyi Biotec, Bergisch Gladbach, Germany) and stained with 2.5 ug/ml CD123-Fc peptide (Novoprotein, Summit, NJ), followed by anti Fc-AF647 conjugate (Jackson ImmunoResearch, West Grove, PA). The 7-Aminoactinomycin D staining (7-AAD, BD Biosciences, San Jose, CA) was added to exclude dead cells. Non-transduced cells (UTD) were used as a negative control. Cells were washed twice with AutoMACS buffer supplemented with 0.5% bovine serum albumin, resuspended in 200 ul staining buffer and acquired by flow cytometry. Flow cytometric analysis was performed on a MACSQuant® 10 Analyzer (Miltenyi Biotec), and data plots were generated using FlowJo software (Ashland, OR).
Lentiviral vectors encoding the CD123 CAR constructs were used for CAR transduction into human primary T cells at multiplicity of infection (MOI) of 40. CAR surface expression of transduced T cells by flow cytometry using recombinant IL3R-alpha Fc-tagged, followed by staining with anti-Fc Alexa Flour 647.

binding result	Binder
binds	B10
